In patent US20040014707A1 one finds fold signal over non-specific EGFP binding data, which are given here for 1 substance.

The assay addresses PA specific receptor on A549 human lung epithelial cells.

For the substance EGFP-PA32 fusion protein, the fold signal over non-specific EGFP binding worked out at 4 fold.
